B1: NCgl0581^E136P: transcription factor NCgl0581 mutant, 136th glutamic acid of SEQ ID NO.1 mutated into proline (SEQ ID NO.3) (protein)
chain: VLNLNRLHILQEFHRLGTITAVAESMNYSRSAISQQMALLEKEIGVKLFEKSGRNLYFTEQGEVLASETHAIMAAVDHARAAVLDSLSEVSGTLKVTSFQSLLFTLAPKAIARLTEKYPHLQVEISQLEVTAALEPLRARRVDVALGEEYPVEVPLVEASIHREVLFEDPMLLVTPASGPYSGLTLPELRDIPIAIDPPDLPAGEWVHRLCRRAGFEPRVTFETSDPMLQAHLVRSGLAVTFSPTLLTPMLESVHIQPLPGNPTRTLYTAVREGRQGHPAIKAFRRALAHVAKESYLEARLVE
B2: wild-type NCgl0581: wild-type LysR-family transcription regulator of Corynebacterium glutamicum (SEQ ID NO.1); L-serine biosensor pDSer is based on it (protein)
chain: VLNLNRLHILQEFHRLGTITAVAESMNYSRSAISQQMALLEKEIGVKLFEKSGRNLYFTEQGEVLASETHAIMAAVDHARAAVLDSLSEVSGTLKVTSFQSLLFTLAPKAIARLTEKYPHLQVEISQLEVTAALEELRARRVDVALGEEYPVEVPLVEASIHREVLFEDPMLLVTPASGPYSGLTLPELRDIPIAIDPPDLPAGEWVHRLCRRAGFEPRVTFETSDPMLQAHLVRSGLAVTFSPTLLTPMLESVHIQPLPGNPTRTLYTAVREGRQGHPAIKAFRRALAHVAKESYLEARLVE

System: L-serine
Test: L-serine biosensor dose response by exogenous addition of L-serine (eyfp fluorescence intensity/OD600)
Assay type: cell-based, E. coli JM109
Details: for detection limit of the biosensor (L-serine concentration at which the dose response curve shows an obvious upward trend): E. coli JM109, L-serine 0, 25, 50, 75 or 100 mM, 2 h at 37° C., PSerE-eyfp reporter
Procedure: Determination of fluorescence intensity and biomass of bacteria: E. coli in the medium was centrifuged at 4° C. and 4000 g for 5 min to collect the bacteria, washed with a precooled PBS buffer for 2-3 times, resuspended and diluted in a PBS buffer (OD600=0.2-0.8). 200 μL of the diluted bacterial liquid was pipetted and added into a 96-well plate, and the fluorescence intensity and bacterial concentration were determined with a multifunctional microplate reader. During the determination of the fluorescence intensity, the parameters of the microplate reader were set to a yellow fluorescent protein excitation wavelength of 488 nm and an emission wavelength of 590/9 nm; and during the determination of the bacteria concentration, the parameters of the microplate reader were set to λ=600.
One part of the biosensor was used for the expression of the transcription regulator NCgl0581, and the other part was connected with the promoter PSerE regulated by NCgl0581, and then connected with eyfp, which was used to characterize the binding of the biosensor to L-serine so as to regulate the transcription level of eyfp. The nucleotide sequence of the promoter PSerE is shown in SEQ ID NO.5, and the nucleotide sequence of the reporter gene eyfp is shown in SEQ ID No.6.
On the basis of site-directed mutation, E. coli JM109 single colonies containing wild-type NCgl0581 and mutant E136P were selected and inoculated into a 10 mL LB (100 μg/mL Kan) liquid medium, and cultured overnight at 37° C. and 220 rpm. A 950 μL of fresh LB medium was added to each well in a sterilized 24-well plate, and then L-serine with different concentrations was added, with the final concentration controlled to be 0, 25, 50, 75 or 100 mM respectively. Finally, 50 μL of the overnight culture bacteria liquid was added to each well, and the well plate was cultured in a shaker for 2 h at 37° C. and 220 rpm.
E. coli JM109 in the medium was centrifuged for 5 min to collect the bacteria, washed with a PBS buffer for 2-3 times, resuspended and diluted in a PBS buffer (OD600=0.2-0.8). 200 μL of the diluted bacterial liquid was pipetted and added into a 96-well plate, and the bacterial concentration OD600 and fluorescence intensity were determined with a multifunctional microplate reader, with the calculated fluorescence intensity/OD600 as the fluorescence intensity value per unit of bacterial cell.
With the fluorescence intensity/OD600 as the ordinate and the L-serine concentration as the abscissa, the dose response curve of the biosensor to L-serine was drawn by OriginPro 8.5. […] According to the response curve, the detection range of wild-type NCgl0581 and mutant E136P could be obtained respectively.

Molecule | detection limit of the biosensor (L-serine concentration at which the dose response curve shows an obvious upward trend) [mM] | change of detection limit of the biosensor versus wild type (biosensor in E. coli, L-serine concentration gradients) | response concentration to L-serine (biosensor in E. coli, exogenous addition of L-serine) [mM]
B1 | 25 | reduced by half | 25
B2 | 50 | – | –

Reference: US12448422B2, “Transcription factor NCgl0581 mutant and use thereof in L-serine detection” (JITRI FUTURE FOOD TECHNOLOGY INSTITUTE CO., LTD., priority 2023, dated 2025)
